Laboratory results taken from US7078233.

Molecular target: T1, 6-methylsalicylic acid synthase (6-MSAS) from Penicillium patulum, P22367
T1 chain: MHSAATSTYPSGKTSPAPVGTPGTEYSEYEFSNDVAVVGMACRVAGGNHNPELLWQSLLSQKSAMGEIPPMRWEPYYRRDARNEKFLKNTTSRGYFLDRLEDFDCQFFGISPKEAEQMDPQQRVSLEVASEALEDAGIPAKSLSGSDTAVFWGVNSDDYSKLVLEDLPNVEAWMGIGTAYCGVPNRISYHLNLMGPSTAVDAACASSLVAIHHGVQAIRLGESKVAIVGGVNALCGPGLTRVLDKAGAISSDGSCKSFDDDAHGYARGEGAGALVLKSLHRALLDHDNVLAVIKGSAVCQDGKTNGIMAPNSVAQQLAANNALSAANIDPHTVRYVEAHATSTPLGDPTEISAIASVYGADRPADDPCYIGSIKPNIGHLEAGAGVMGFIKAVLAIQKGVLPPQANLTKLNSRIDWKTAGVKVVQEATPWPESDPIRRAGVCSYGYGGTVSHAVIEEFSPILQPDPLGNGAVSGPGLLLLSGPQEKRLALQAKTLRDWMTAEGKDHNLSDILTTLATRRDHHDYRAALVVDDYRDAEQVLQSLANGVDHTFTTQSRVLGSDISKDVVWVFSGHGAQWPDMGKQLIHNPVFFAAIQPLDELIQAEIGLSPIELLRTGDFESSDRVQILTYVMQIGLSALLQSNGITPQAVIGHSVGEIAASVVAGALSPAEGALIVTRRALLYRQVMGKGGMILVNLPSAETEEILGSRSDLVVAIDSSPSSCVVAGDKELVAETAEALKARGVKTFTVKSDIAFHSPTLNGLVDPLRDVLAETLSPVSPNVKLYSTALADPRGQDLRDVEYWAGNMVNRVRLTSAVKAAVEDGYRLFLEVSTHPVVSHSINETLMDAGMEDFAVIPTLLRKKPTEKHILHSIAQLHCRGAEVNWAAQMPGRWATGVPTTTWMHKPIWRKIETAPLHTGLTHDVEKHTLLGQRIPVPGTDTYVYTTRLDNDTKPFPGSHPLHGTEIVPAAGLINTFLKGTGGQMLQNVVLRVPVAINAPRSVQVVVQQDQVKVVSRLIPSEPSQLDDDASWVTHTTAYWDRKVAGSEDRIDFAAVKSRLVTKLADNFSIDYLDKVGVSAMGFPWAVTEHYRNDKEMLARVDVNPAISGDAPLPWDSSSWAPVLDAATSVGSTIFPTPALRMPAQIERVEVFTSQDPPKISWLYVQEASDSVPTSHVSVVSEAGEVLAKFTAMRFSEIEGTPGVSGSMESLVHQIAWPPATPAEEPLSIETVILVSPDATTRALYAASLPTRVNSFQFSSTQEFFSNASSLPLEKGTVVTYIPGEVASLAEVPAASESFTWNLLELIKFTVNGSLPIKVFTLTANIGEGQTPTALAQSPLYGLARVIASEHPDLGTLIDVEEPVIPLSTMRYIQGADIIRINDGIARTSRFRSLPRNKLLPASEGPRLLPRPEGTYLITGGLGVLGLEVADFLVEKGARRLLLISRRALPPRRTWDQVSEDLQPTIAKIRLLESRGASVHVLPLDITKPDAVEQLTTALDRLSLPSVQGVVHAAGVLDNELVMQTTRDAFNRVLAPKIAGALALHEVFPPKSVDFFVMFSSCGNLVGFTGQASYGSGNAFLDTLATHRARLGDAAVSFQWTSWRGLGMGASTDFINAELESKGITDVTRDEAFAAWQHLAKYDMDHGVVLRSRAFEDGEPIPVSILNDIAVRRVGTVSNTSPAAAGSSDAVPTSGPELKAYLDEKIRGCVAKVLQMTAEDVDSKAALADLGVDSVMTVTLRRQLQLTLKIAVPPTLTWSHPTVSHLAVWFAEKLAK

B1: Bacillus subtilis surfactin holo ACP synthase (sfp) (protein)
chain: MKIYGIYMDRPLSQEENERFMSFISPEKREKCRRFYHKEDAHRTLLGDVLVRSVISRQYQLDKSDIRFSTQEYGKPCIPDLPDAHFNISHSGRWVICAFDSQPIGIDIEKTKPISLEIAKRFFSKTEYSDLLAKDKDEQTDYFYHLWSMKESFIKQEGKGLSLPLDSFSVRLHQDGQVSIELPDSHSPCYIKTYEVDPGYKMAVCAAHPDFPEDITMVSYEELL
radioactivity from labeled beta-alanine in the 190 kD 6-MSAS band on SDS-PAGE, E. coli SJ16 cotransformed with plasmids 108 (sfp) and 109 (6-MSAS): a detectable amount of radioactivity was found in the 190 kD 6-MSAS band
